Assay results taken from the DeepSol protein solubility set.

assay: soluble on expression in E. coli; label from the status in PepcDB or PDB records

Soluble on expression in E. coli, not soluble:
MGSDKIHHHHHHMLYSFSRLVYRILTVVGVLDGRAAYKRRIQLTGRSTYIVSLPKEWVETWRLGRGSEVTLEVMPDGSLKIAPSASERPARRDRRVIDLRGKELDLSFVIKSVIASYLAGYDEVLLLFGDGSVDAVSKIRSIVESNILGFNVLEEGPGYIVFVSVVDHRSMEFSRALSRMARIAAEMIRDVARGLENGDRGLLDLVAERDQLVDKLYLYMARQMTMASSGRLPLKDLGVYSPAEIVHLFLAVKSIERVADHATILSVRVSASLGAGMSVENGLSSLVMEAAEGFSKSVEALIKADAGLAASIAPVLSEYRSRLESMTAQEFLRGGGSLLRYLVIDSMRRITGYSLDIAEAALDISAVREKAKSEGP
MGSDKIHHHHHHMMATSAVEKIDYWQASILKEMELSRAQFTHFAFEKHVHLDYHIGVVCHGGQRYHHRGSEYRLTPGNISTLNPDESHNGQSIADGGYEALVMSLPTSYVQQVGGALNQGELYFSTPILDDPKLRAYFIRLHRQLTLHQANITPLEAETLLLGFISELFYRHGKLRNLPSCQARLSGAQLDNIKQQFHQGLDQEFELEQLALSVDLSKFQFLRQFKAATGMTPHAYLKRLRLEYAKKALMRGDSAISTAYDLGFFDQSHFNKAFKRAFLITPAHFQKRVTP
MGSDKIHHHHHHMMFKWPWKADDESGNAEMPWEQALAIPVLAHLSSTEQHKLTQMAARFLQQKRLVALQGLELTPLHQARIAMLFCLPVLELGIEWLDGFHEVLIYPAPFIVDDEWEDDIGLVHNQRVVQSGQSWQQGPVVLNWLDIQDSFDASGFNLVVHEVAHKLDTRNGDRASGVPLIPLREVAGWEHDLHAAMNNIQDEIDLVGESAASIDAYAATDPAECFAVLSEYFFSAPELFAPRFPALWQRFCHFYRQDPLARRRENGLQDEGDRRIVH
MGSDKIHHHHHHMMKILFIYRHPSMGFSIGKVFRPIEEEMKKYAEVDSIYMPTSQYSLNSIWQNIKTTRKAINSKKYDIVHITGTEHYLIPFLLGEKVVVTVHDLGHYFDIHGLKKILFWIMQIFSLKFAKAITCISNFTVQELKKTISIKNNKISVIFNEVDKNFSFKEKEFNKDYPVILHIGTRPHKNLSRTIKALNGIKCKLRIIGEITNKELDLLQKYKTDYSFASNLSDNDLLKEYQNADIINFPSCHEGFGMPIIEGQAVGRIVVTSNIEPMISVANNGAAICDPYNIESIRNTYIRVINDFQYRNDIILKGIDNVKKYSIETVAKQYFELYKTL
MGSDKIHHHHHHMMKTDYVFCVDSDGCAMDTMTYKHKLFFGPLAADVFDVKDREPFLAEWNRVNLYSRERGINRFVGLVKGLDFAGVTGIDNLKNWVATTDSLSNASLERLIEETPSKDLELALEWSTQVNQAIKHYSGPVLAFIGVHKGLEKLSQLGKVYVVSSANKEAVEEEWTDQGLLDFVTELYCQDRGKKEDVIKILIEEGYCPDKIMMIGDSPGDLKAAELNGVHFYPILVGQEMQSWADLTETIADEFAHQAFTGEKETELIQAFWNNLDD
MGSDKIHHHHHHMMLVQLRQVGVIRSPYKNFSKAPHQGRFSKETVEIEIFPEFEDGLKDIETCTHLIVLYWLDRANRDALLVVPPHDSREHGVFATRSPHRPNPIGFAVVELLERDGRVLKVKGLDALDGTPVVDIKPYSSTIDSVGNAKIGWFEEANPQSKLTRLLLRAKEFHGHICPFVALGVRMSVIAMEKLGVEEDAMASVGEDILAIVECNNCLTDGVQVATGCTLGNNSLIYLDLGKNALTIVRRKDWKGVRVYVNAENVRKYFSKEALELFNKVIVRREGSEEDAKRLSEFWEETGWKMLEIPEEEFKVEFVEVQPIERAPIFENKRCEKCGELAMATRVKDGLCLRCAGSYYAVVGRGIVKFDGEMREVV
MGSDKIHHHHHHMMNNIGLILFDIDGVIRDVTNSYRLAIQETVNFFSGWRPSIEDIDSIKSEGCWNNDWDLSLEMINRHVQKNNLSFSAPSRKILIECFENFYFGGDPNHDSSEWSGFIKDETLLVKKTFFEELTQRRIGWGFVSGAELPSAKFVLEQRLGLASAPLIAMGEAPEKPDPTGFISLSSKLSKKPLGFSNPPIAYIGDTVADVKTVINARIKIPDQKFISLAIAPPHLHVDSSREKRLRYEAELKKAGADLIIKSMDNLKNETLNLFINQ
